Earlier results in paper PMC8441013.

Molecular target: neuromedin B (Homo sapiens) (UniProt P08949)
Sequence of UniProt P08949 (P08949 whole entry, looked up): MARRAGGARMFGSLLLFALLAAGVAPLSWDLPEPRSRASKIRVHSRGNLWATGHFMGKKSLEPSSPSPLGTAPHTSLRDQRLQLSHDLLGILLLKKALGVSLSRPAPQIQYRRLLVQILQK

For NMBR (from UniProt P28336), which Kd is on record?
Its Kd is 5 nM.
